Reference: paper PMC6650354
Read-outs that look alike come from different tables or passages of the source.

Columns and labels:
[1] = biological target: AL-09 H87Y restorative mutant light chain variable domain protein (human) (UniProt P01594); experiment: HPLC sedimentation assay
[2] = biological target: AL-09 H87Y restorative mutant light chain variable domain protein (human) (UniProt P01594); experiment: HPLC sedimentation assay; remark: listed apart in the source
[3] = biological target: AL-12 R65S restorative mutant light chain variable domain protein (human) (UniProt P01594); experiment: HPLC sedimentation assay
[4] = biological target: immunoglobulin light chain κI O18/O8 variable domain (Homo sapiens) (UniProt P01594); settings: cited from earlier work
[5] = biological target: κI O18/O8 germline (control) light chain variable domain protein (human) (UniProt P01594); experiment: HPLC sedimentation assay
[6] = biological target: κI O18/O8 germline (control) light chain variable domain protein (human) (UniProt P01594); experiment: HPLC sedimentation assay; remark: listed apart in the source

What does the source list for “AL-09 H87Y restorative mutant light chain variable domain protein (from UniProt P01594 23-117) (domain or fragment)”?
critical concentration (Cr) of fibril growth [1]: 2.4 µM; critical concentration (Cr) of fibril growth [2]: 2.8 µM

Which critical concentration (Cr) of fibril growth [3] does the source give for “AL-12 R65S restorative mutant light chain variable domain protein (from UniProt P01594 23-111) (domain or fragment)” here?
Its critical concentration (Cr) of fibril growth is 3.4 µM.

For “immunoglobulin light chain κI O18/O8 variable domain (from UniProt P01594)”, which Kd [4] is on record?
Its Kd is 217 µM.

With “κI O18/O8 germline (control) light chain variable domain protein (from UniProt P01594 23-117) (domain or fragment)” as the substance, how does the critical concentration (Cr) of fibril growth [5] read?
Its critical concentration (Cr) of fibril growth is 1.2 µM.

And the critical concentration (Cr) of fibril growth [6]?
Its critical concentration (Cr) of fibril growth is 3.2 µM.
